In publication PMC7733459, “A serine protease secreted from Bacillus subtilis cleaves human plasma transthyretin to generate an amyloidogenic fragment” (Communications Biology, 2020):

Biological target: the molecule itself
Experiment: dynamic light scattering + native gel or EMSA; fragment at 0.23 mg/ml in 10 mM phosphate buffer, pH 7.4, 25 °C, immediately after dissolving the lyophilisate; native PAGE 5–12% acrylamide

B1: hTTR(59–127) (domain or fragment)
chain: not shown
notes: transthyretin, human, C-terminal proteolytic fragment Thr59-Glu127 (7757.4 Da) from cleavage at the Leu58-Thr59 bond; also called Thr59-Glu127 peptide; source: cleavage of plasma-purified hTTR by B. subtilis subtilisin, purified by semi-preparative RP-HPLC, lyophilized
binding result: binds
